Measurements taken from patent CN110028578A.

Experiments:
[1] = target: A/Shanghai/2/2013 H7N9 HA extracellular domain 11-505 (H3 numbering) with C-terminal T4 trimerisatio (Influenza A virus A/Shanghai/2/2013 H7N9); assay: BLI, biotinylated HA on streptavidin probe, antibody in solution
[2] = target: A/Guangdong/17SF003/2016 H7N9 HA extracellular domain 11-505 (H3 numbering) with C-terminal T4 trime (Influenza A virus A/Guangdong/17SF003/2016 H7N9); assay: as above

B1: P52E03 IgG (antibody, V domains shown)
VH: QVQLVQSGGGLVQPGRSLRLSCAASGFTFDDYAMHWVRQAPGKGLEWVSGISWNSGSIGYADSVKGRFTISRDNAKNSLYLQMNSLRAEDTALYYCAKGLNSSGWYVYFDYWGQGTLVTVSS
VL: EIVLTQSPGTLSLSPGERATLSCRASQTVARNYLAWYQQKPGQAPRLLMYDPSSRPAGIPDRFSGSGSGTDFTLTISRLEPEDSAVYFCQQYGSPPLTFGGGTKIEIKR
[1]
  Kd: 157 nM
[2]
  Kd: 10.5 nM
